Measured values published in patent publication US20220177587A1, “METHODS AND USES OF VARIANT CD80 FUSION PROTEINS AND RELATED CONSTRUCTS” (Alpine Immune Sciences, Inc., priority 2018, published 2022).
Changes are numbered by the printed parent chain. Names and notes keep the numbering of the source.

B1: variant CD80 IgV-Fc H18Y/E35D/M47L (Fc fusion)
chain: VIHVTKEVKEVATLSCGYNVSVEELAQTRIYWQKDKKMVLTMMSGDLNIWPEYKNRTIFDITNNLSIVILALRPSDEGTYECVVLKYEKDAFKREHLAEVTLSVKAD
B2: variant CD80 IgV-Fc A26E/Q33R/E35D/M47L/L85Q (Fc fusion)
chain: B1 chain with Y18H, A26E, Q33R, L85Q
B3: variant CD80 IgV-Fc H18Y/A26E/Q33L/E35D/M47L/L85Q (Fc fusion)
chain: B1 chain with A26E, Q33L, L85Q
B4: variant CD80 IgV-Fc V22A/E35D/V68E/A71D (Fc fusion)
chain: B1 chain with Y18H, V22A, L47M, V68E, A71D
B5: variant CD80 IgV-Fc A26E/Q33L/E35D/M47L (Fc fusion)
chain: B1 chain with Y18H, A26E, Q33L
B6: variant CD80 IgV-Fc A26E/Q33L/E35D/M47L/L85Q (Fc fusion)
chain: B1 chain with Y18H, A26E, Q33L, L85Q
B7: variant CD80 IgV-Fc H18Y/Q33L/E35D/M47I (Fc fusion)
chain: B1 chain with Q33L, L47I
B8: variant CD80 IgV-Fc Q33L/E35D/M47I (Fc fusion)
chain: B1 chain with Y18H, Q33L, L47I
B9: variant CD80 IgV-Fc Q33K/E35D/M47V/K89E/K93R (Fc fusion)
chain: B1 chain with Y18H, Q33K, L47V, K89E, K93R
B10: variant CD80 IgV-Fc A26E/Q33R/E35D/M47L/L85Q/K86E (Fc fusion)
chain: B1 chain with Y18H, A26E, Q33R, L85Q, K86E
B11: variant CD80 IgV-Fc Q33L/E35D/T41S/M47V (Fc fusion)
chain: B1 chain with Y18H, Q33L, T41S, L47V
B12: CD80 ECD (SEQ ID NO:2)-Fc (inert) with GSG4S linker (Fc fusion)
chain: VIHVTKEVKEVATLSCGHNVSVEELAQTRIYWQKEKKMVLTMMSGDMNIWPEYKNRTIFDITNNLSIVILALRPSDEGTYECVVLKYEKDAFKREHLAEVTLSVKADFPTPSISDFEIPTSNIRRIICSTSGGFPEPHLSWLENGEELNAINTTVSQDPETELYAVSSKLDFNMTTNHSFMCLIKYGHLRVNQTFNWNTTKQEHFPDNGSGGGGS
B13: variant CD80 IgV-Fc (inert) H18Y/A26P/E35D/M47V/V68M/A71G (Fc fusion)
chain: B1 chain with A26P, L47V, V68M, A71G
B14: variant CD80 IgV-Fc V22L/Q27H/E35D/M47I/A71G (Fc fusion)
chain: B1 chain with Y18H, V22L, Q27H, L47I, A71G
B15: variant CD80 IgV-Fc E35D/T41S/M43I/A71G/D90G (Fc fusion)
chain: B1 chain with Y18H, T41S, M43I, L47M, A71G, D90G
B16: variant CD80 IgV-Fc V22D/E35D/M47L/L85Q (Fc fusion)
chain: B1 chain with Y18H, V22D, L85Q
B17: variant CD80 IgV-Fc E35D/D46E/M47V/A71D/D90G (Fc fusion)
chain: B1 chain with Y18H, D46E, L47V, A71D, D90G
B18: variant CD80 IgV-Fc E35D/A71G (Fc fusion)
chain: B1 chain with Y18H, L47M, A71G
B19: variant CD80 IgV-Fc E35D/M47V/A71G/E88D (Fc fusion)
chain: B1 chain with Y18H, L47V, A71G, E88D
B20: variant CD80 IgV-Fc H18Y/A26E/E35D/M47L/L85Q/D90G (Fc fusion)
chain: B1 chain with A26E, L85Q, D90G
B21: variant CD80 IgV-Fc E35D/T41S/M43I/M47L/A71G (Fc fusion)
chain: B1 chain with Y18H, T41S, M43I, A71G
B22: variant CD80 IgV-Fc H18Y/E35D/N48K (Fc fusion)
chain: B1 chain with L47M, N48K
B23: variant CD80 IgV-Fc E35D/M47V/N48T/L85Q (Fc fusion)
chain: B1 chain with Y18H, L47V, N48T, L85Q
B24: variant CD80 IgV-Fc E35D/M47V/A71G (Fc fusion)
chain: B1 chain with Y18H, L47V, A71G
B25: variant CD80 IgV-Fc E35D/K37E/M47V/N48D/L85Q/D90N (Fc fusion)
chain: B1 chain with Y18H, K37E, L47V, N48D, L85Q, D90N
B26: variant CD80 IgV-Fc E35D/T41S/M43I/M47V/A71G (Fc fusion)
chain: B1 chain with Y18H, T41S, M43I, L47V, A71G
B27: variant CD80 IgV-Fc E35D/D46E/M47V/A71D (Fc fusion)
chain: B1 chain with Y18H, D46E, L47V, A71D
B28: variant CD80 IgV-Fc M47L/L85Q (Fc fusion)
chain: B1 chain with Y18H, D35E, L85Q
B29: variant CD80 IgV-Fc E35D/D46V/M47L/V68M/L85Q/E88D (Fc fusion)
chain: B1 chain with Y18H, D46V, V68M, L85Q, E88D
B30: variant CD80 IgV-Fc E35D/M47L/A71G/L85Q (Fc fusion)
chain: B1 chain with Y18H, A71G, L85Q
B31: variant CD80 IgV-Fc V22D/E35D/M47L/L70M/L97Q (Fc fusion)
chain: B1 chain with Y18H, V22D, L70M, L97Q

The binders below were run against CD28 (human) (UniProt P10747) (assay: flow cytometry, Jurkat/IL2 reporter cells (endogenous CD28)).

Row | Binder | MFI at 33.3 nM [MFI]
1 | B1 | 5070
2 | B2 | 264
3 | B3 | 272
4 | B4 | 14000
5 | B5 | 271
6 | B6 | 274
7 | B7 | 295
8 | B8 | 282
9 | B9 | 276
10 | B10 | 275
11 | B11 | 287

Each binder was assayed against CD28 (human) (UniProt P10747) (assay: flow cytometry, Jurkat cells (CD28)).

Row | Binder | MFI at 33.3 nM [MFI]
12 | B12 | 37
13 | B13 | 6910

The binders below were run against human PD-L1 (human) (UniProt Q9NZQ7) (assay: flow cytometry; binding to PD-L1 cells against binding of the same variant to CD28 cells).
human PD-L1 (human), sequence (Q9NZQ7 19-290): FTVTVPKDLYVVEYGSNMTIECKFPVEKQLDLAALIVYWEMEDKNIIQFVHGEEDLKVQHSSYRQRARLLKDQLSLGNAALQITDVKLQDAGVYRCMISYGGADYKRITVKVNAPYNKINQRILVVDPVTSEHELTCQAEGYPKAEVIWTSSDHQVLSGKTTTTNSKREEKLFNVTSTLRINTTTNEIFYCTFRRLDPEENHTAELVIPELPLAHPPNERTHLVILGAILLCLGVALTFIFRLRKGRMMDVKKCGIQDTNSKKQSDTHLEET

Row | Binder | Ratio of PDL1:CD28
14 | B1 | 9
15 | B2 | 309
16 | B3 | 282
17 | B5 | 225
18 | B6 | 229
19 | B7 | 162
20 | B8 | 132
21 | B10 | 276
22 | B11 | 153

Each binder was assayed against human CTLA-4 (human) (UniProt P16410) (assay: flow cytometry, CHO cells expressing huCTLA4; MFI ratio to WT CD80 ECD-Fc (R&D)).
human CTLA-4 (human), sequence (P16410 36-223): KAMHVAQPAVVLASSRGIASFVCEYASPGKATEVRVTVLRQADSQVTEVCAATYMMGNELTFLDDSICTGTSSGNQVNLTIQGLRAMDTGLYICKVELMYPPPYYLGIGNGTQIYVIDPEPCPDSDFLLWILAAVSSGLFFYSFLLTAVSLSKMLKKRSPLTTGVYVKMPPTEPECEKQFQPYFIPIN

Row | Binder | Fold change to WT CD80 [fold]
23 | B1 | 1.59
24 | B2 | 0.01
25 | B3 | 0.01
26 | B5 | 0.01
27 | B6 | 0.01
28 | B7 | 0.03
29 | B8 | 0.09
30 | B10 | 0.01
31 | B11 | 0.08

The binders below were run against human CTLA-4 (human) (UniProt P16410) (assay: flow cytometry, CHO cells expressing huCTLA4).

Row | Binder | MFI at 33.3 nM [MFI]
32 | B14 | 152000
33 | B1 | 284000
34 | B2 | 1280
35 | B15 | 208000
36 | B3 | 2090
37 | B16 | 256000
38 | B17 | 275000
39 | B18 | 184000
40 | B4 | 437000
41 | B5 | 1320
42 | B19 | 212000
43 | B6 | 1170
44 | B7 | 5540
45 | B8 | 15900
46 | B20 | 231000
47 | B21 | 209000
48 | B10 | 1280
49 | B11 | 14500
50 | B22 | 261000

What follows are binders tested against CD28 (human) (UniProt P10747) (assay: flow cytometry, Jurkat/IL2 reporter cells (endogenous CD28); MFI ratio to WT CD80 ECD-Fc (R&D)).

Row | Binder | Fold change to WT [fold]
51 | B1 | 0.66
52 | B2 | 0.03
53 | B3 | 0.04
54 | B5 | 0.04
55 | B6 | 0.04
56 | B7 | 0.04
57 | B8 | 0.04
58 | B10 | 0.04
59 | B11 | 0.04

The binders below were run against human PD-L1 (human) (UniProt Q9NZQ7) (assay: flow cytometry, CHO cells expressing huPD-L1).

Row | Binder | MFI at 33.3 nM [MFI]
60 | B14 | 43800
61 | B1 | 44200
62 | B23 | 35500
63 | B2 | 81500
64 | B3 | 76600
65 | B24 | 36200
66 | B25 | 26500
67 | B17 | 32400
68 | B26 | 44400
69 | B27 | 549
70 | B18 | 34100
71 | B28 | 5800
72 | B4 | 1350
73 | B5 | 60900
74 | B19 | 37100
75 | B6 | 62700
76 | B7 | 47800
77 | B8 | 37400
78 | B20 | 52400
79 | B29 | 137000
80 | B9 | 39100
81 | B10 | 76000
82 | B11 | 43800

What follows are binders tested against human PD-L1 (human) (UniProt Q9NZQ7) (assay: flow cytometry, CHO cells stably expressing PD-L1).

Row | Binder | MFI at 33.3 nM [MFI]
83 | B12 | 35
84 | B13 | 51500

These binders were tested against human PD-L1 (human) (UniProt Q9NZQ7) (assay: flow cytometry, CHO cells expressing huPD-L1; MFI ratio to WT CD80 ECD-Fc (R&D)).

Row | Binder | Fold change to WT [fold]
85 | B1 | 5.56
86 | B2 | 10.3
87 | B3 | 9.64
88 | B5 | 7.67
89 | B6 | 7.89
90 | B7 | 6.02
91 | B8 | 4.7
92 | B10 | 9.56
93 | B11 | 5.52

What follows are binders tested against CD28 (human) (UniProt P10747) (assay: flow cytometry, Jurkat/IL2 reporter cells (CD28)).

Row | Binder | MFI at 33.3 nM [MFI]
94 | B14 | 7270
95 | B23 | 692
96 | B16 | 542
97 | B24 | 6360
98 | B30 | 1440
99 | B26 | 2840
100 | B31 | 527
101 | B28 | 88.1
102 | B19 | 6240
103 | B20 | 3540
104 | B21 | 3100
